Source: patent publication US20260015403A1 (LENTIGEN TECHNOLOGY, published 2026)

T1: recombinant human BCMA (ectodomain)-Fc (human, UniProt Q02223 1-54)
T1 construct: extracellular domain; also called BCMA-Fc; BCMA-Fc peptide; not shown: Fc part
T1 sequence (looked up): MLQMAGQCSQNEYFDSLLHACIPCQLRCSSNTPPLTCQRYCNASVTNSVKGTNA

T2: BCMA on BCMA-positive multiple myeloma tumor lines RPMI-8226 and MM1.S (human, UniProt Q02223 1-184)
T2 sequence (looked up): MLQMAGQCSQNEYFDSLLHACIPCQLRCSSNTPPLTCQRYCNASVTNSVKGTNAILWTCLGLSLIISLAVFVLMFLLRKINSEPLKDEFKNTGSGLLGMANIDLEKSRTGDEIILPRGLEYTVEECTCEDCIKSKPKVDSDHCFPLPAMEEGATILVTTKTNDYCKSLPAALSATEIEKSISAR

B1: CAR D0153 (BCMA 4-1c CD8 BBz) (other)
chain: EVQLVETGGGVVQPGGSLRLSCAASGFTFSSYGMHWVRQAPGKGLEWVAFIRYDGSNKYYADSVKGRFTISRDNSKNTLYLQMNSLRAEDTAVYYCAKDWDTYYYDSSGYDRAWGQGTLVTVSSGGGGSGGGGSGGGGSDIQMTQSPSSLSASVGDRVTITCQASQDINNYLNWYQQKPGKAPKLLIYAASSLQSGVSSRFSGSGSGTEFTLTISSLQPEDFATYFCQQTYSPPITFGQGTRLEIKRAAATTTPAPRPPTPAPTIASQPLSLRPEACRPAAGGAVHTRGLDFACDIYIWAPLAGTCGVLLLSLVITLYCKRGRKKLLYIFKQPFMRPVQTTQEEDGCSCRFPEEEEGGCELRVKFSRSADAPAYQQGQNQLYNELNLGRREEYDVLDKRRGRDPEMGGKPRRKNPQEGLYNELQKDKMAEAYSEIGMKGERRRGKGHDGLYQGLSTATKDTYDALHMQALPPR
notes: Chimeric antigen receptor on transduced human primary T cells; also called D153; CAR D153
B2: BCMA CAR construct with ScFv sequence 3 (MTB-3) (other, not shown: large carriers)
chain: EVQLVESGGGVVQPGGSLRLSCAASGFTFSSYGMHWVRQAPGKGLEWVAFIRYDGSNKYYADSVKGRFTISRDNSKNTLYLQMNSLRAEDTAVYYCAKDDYGGNSEGDYWGQGTLVTVSSGGGGSGGGGSGGGGSEIVLTQSPATLSVSLGERATLSCRASQSVSNSLAWYQQKPGQAPRLLIYDASTRATGIPARFSGSGSGTEFTLTISSLQPEDFATYFCQQTYSPPITFGQGTRLEIKR
B3: BCMA CAR construct with ScFv sequence 28 (MTB-28) (other, not shown: large carriers)
chain: QVQLVESGGGVVQPGGSLRLSCAASGFTFSSYGMHWVRQAPGKGLEWVAFIRYDGSNKYYADSVKGRFTISRDNSKNTLYLQMNSLRAEDTAVYYCARDSYSSSGDPRAFDPWGQGTLVTVSSGGGGSGGGGSGGGGSNFMLTQPHSVSESPGKTVTISCTGSSGSIASNYVQWYQQRPGSAPSTVIFEDNQRPSGVPGRFSGSVDRSSNSASLTISGLKTEDEADYYCQSYDSNNRGLFGGGTKVTVLG
B4: CAR D0087 (Ef1a-BCMA sequence 40 CD8 BBz) (other)
chain: EVQLVQSGGGVVQPGGSLRLSCAASGFTFSSYGMHWVRQAPGKGLEWVAFIRYDGSNKYYADSVKGRFTISRDNSKNTLYLQMNSLRAEDTAVYYCAKEPPEYYYDSSGYSWGQGTLVTVSSGGGGSGGGGSGGGGSDIQLTQSPSSLSASVGDRVTITCQASQDIDTYLNWYQQKPGKAPKLLIYAASSLQSGVSSRFSGSGSGTEFTLTISSLQPEDFATYFCQQTYSPPITFGQGTRLEIKRAAATTTPAPRPPTPAPTIASQPLSLRPEACRPAAGGAVHTRGLDFACDIYIWAPLAGTCGVLLLSLVITLYCKRGRKKLLYIFKQPFMRPVQTTQEEDGCSCRFPEEEEGGCELRVKFSRSADAPAYQQGQNQLYNELNLGRREEYDVLDKRRGRDPEMGGKPRRKNPQEGLYNELQKDKMAEAYSEIGMKGERRRGKGHDGLYQGLSTATKDTYDALHMQALPPR
B5: CAR D0099 (Ef1a-BCMA sequence 4-12 CD8 BBz) (other)
chain: QVQLVQSGGGVVQPGGSLRLSCAASGFTFSSYVIHWVRQAPGKGLEWVAAISHDGSNKYYADSVKGRFTISRDNSKNTLYLQMSSLSAEDTAMYYCVKTSSDYYYAYWGQGTLVTVSSGGGGSGGGGSGGGGSQTVVTQEPSFSVSPGGTVTLTCGLSSGSVSTGNSPTWYQQTPGQAPRTLIYSTNTRSSGVPDRFSGSILGNKAALTITGAQADDESDYYCVLYMGSGYWVFGGGTKVTVLGAAATTTPAPRPPTPAPTIASQPLSLRPEACRPAAGGAVHTRGLDFACDIYIWAPLAGTCGVLLLSLVITLYCKRGRKKLLYIFKQPFMRPVQTTQEEDGCSCRFPEEEEGGCELRVKFSRSADAPAYQQGQNQLYNELNLGRREEYDVLDKRRGRDPEMGGKPRRKNPQEGLYNELQKDKMAEAYSEIGMKGERRRGKGHDGLYQGLSTATKDTYDALHMQALPPR
B6: CAR D0100 (Ef1a-BCMA sequence 4-45 CD8 BBz) (other)
chain: EVQLVQSGAEVKKPGASVKVSCKASGYTSTSYYMHWVRQAPGQGLEWMGIINPSGGSTSYAQKFQGRVTMTRDTSTSTVYMELSSLRSEDTAVYYCARDLGDGAFDIWGQGTMVTVSSGGGGSGGGGSGGGGSDIQMTQSLSSLSASVGDRVTIACRASQTISRYLNWYQQKPGKAPKLLIYAASSLQSGVSSRFSGSGSGTEFTLTISSLQPEDFATYFCQQTYSPPITFGQGTRLEIKRAAATTTPAPRPPTPAPTIASQPLSLRPEACRPAAGGAVHTRGLDFACDIYIWAPLAGTCGVLLLSLVITLYCKRGRKKLLYIFKQPFMRPVQTTQEEDGCSCRFPEEEEGGCELRVKFSRSADAPAYQQGQNQLYNELNLGRREEYDVLDKRRGRDPEMGGKPRRKNPQEGLYNELQKDKMAEAYSEIGMKGERRRGKGHDGLYQGLSTATKDTYDALHMQALPPR
B7: BCMA CAR construct with ScFv sequence 39 (MTB-39) (other, not shown: large carriers)
chain: EVQLVESGGGVVQPGGSLRLSCAASGFTFSGYGMHWVRQAPGKGLEWVAFIRYDGSNKYYADSVKGRFTISRDNSKNTLYLQMNSLRAEDTAVYYCARDGARNDYWGQGTLVTVSSGGGGSGGGGSGGGGSNFMLTQPHSVSESPGKTVTISCTRSSGSIASNYVQWYQQRPGSAPTTVIYEDNQRPSGVPDRFSGSIDSSSNSASLTISGLKTEDEADYYCQTYDDNNHVIFGGGTQLTVLG
B8: BCMA CAR construct with ScFv sequence 49 (MTB-49) (other, not shown: large carriers)
chain: EVQLVESGGGVVQPGRSLRLSCAASGFTFSSYGMHWVRQAPGKGLEWVAFIRYDGSNKYYADSVKGRFTISRDNSKNTLYLQMNSLRAEDTAVYYCVSDDYGGNSGTSYWGQGTLVTVSSGGGGSGGGGSGGGGSDIQMTQSPSSLSASVGDRVTITCQASQDISNYLNWYQQKPGKAPKLLIYDASNLETGVPSRFSGSGSGTDFTLTISSLQPEDFATYYCQQSYSTPVTFGGGTKLTVLG
B9: BCMA CAR construct with ScFv sequence 14 (MTB-14) (other, not shown: large carriers)
chain: EVQLVESGGGVVQPGRSLRLSCAASGFTFSSYGMHWVRQAPGKGLEWVAFIRYDGSNKYYADSVKGRFTISRDNSKNTLYLQMNSLRAEDTAVYYCVSDDYGGNSGTSYWGQGTLVTVSSGGGGSGGGGSGGGGSDIQMTQSPSSLSASVGDRVTITCQASQDISNYLNWYQQKPGKAPKLLIYDASNLETGVPSRFSGSGSGTDFTLTISSLQPEDFATYYCQQSYSTPVTFGGGTKLTVLG
B10: BCMA CAR construct with ScFv sequence 2 (MTB-2) (other, not shown: large carriers)
chain: EVQLVQSGGGLVQPGGSLRLSCAASGFTFSSYWMSWVRQAPGKGLEWVSGINGSGDRTYYADSVKGRFTISRDNSKNTLYLQMNSLRAEDTAVYYCANYNYDDNSGYGLGQGTLVTVSSGGGGSGGGGSGGGGSQSVLTQPPSVSVAPGKTARITCGGNNIGSKSVHWYQQKPGQAPVLVIYDDSDRPSGIPERFSGSNSGNTATLTISRVEAGDEADYYCQVWDSSSDHWVFGGGTKVTVLG
B11: BCMA CAR construct with ScFv sequence 50 (MTB-50) (other, not shown: large carriers)
chain: EVQLVQSGGGVVRPGGSLRLSCAASGFTFSTYEMNWVRQAPGKGLEWLAYIGGSGSPIYYADSVRGRFTISRDNTKNSLFLQMSSLRAEDTAVYYCVEGWFDKWGLGTLVTVSSGGGGSGGGGSGGGGSDIQLTQSPSTLSASVGDRVTITCRASQSISSYLNWYQQKPGKAPKLLIYDASNLETGVPSRFSGSGSGTDFTLTISSLQPEDFATYYCQQSYSTPYTFGQGTKLEIKR
B12: CAR D0085 (Ef1a-BCMA sequence 16 CD8 BBz) (other)
chain: EVQLVQSGGGVVQPGGSLRLSCAASGFTFSSYGMHWVRQAPGKGLEWVAFIRYDGSNKYYADSVKGRFTISRDNSKNTLYLQMNSLRAEDTAVYYCARDLNDYGDPPPYWGQGTLVTVSSGGGGSGGGGSGGGGSDIQMTQSPSSLSASVGDRVTITCRASQSISSYLNWYQQKPGKAPKLLIYDASNLETGVSSRFSGSGSGTEFTLTISSLQPEDFATYFCQQTYSPPITFGQGTRLEIKRAAATTTPAPRPPTPAPTIASQPLSLRPEACRPAAGGAVHTRGLDFACDIYIWAPLAGTCGVLLLSLVITLYCKRGRKKLLYIFKQPFMRPVQTTQEEDGCSCRFPEEEEGGCELRVKFSRSADAPAYQQGQNQLYNELNLGRREEYDVLDKRRGRDPEMGGKPRRKNPQEGLYNELQKDKMAEAYSEIGMKGERRRGKGHDGLYQGLSTATKDTYDALHMQALPPR
B13: CAR D0086 (Ef1a-BCMA sequence 37 CD8 BBz) (other)
chain: EVQLVESGGGLVKPGGSLRLSCAASGFTFSSYGMHWVRQAPGKGLEWVAFIRYDGSNKYYADSVKGRFTISRDNSKNTLYLQMNSLRAEDTAVYYCAKDWEYSGYDAHPGWGQGTLVTVSSGGGGSGGGGSGGGGSDIQLTQSPSSLSASVGDRVTITCRASQGISSALAWYQQKPGKAPKLLIYDASSLESGVPSRFSGSGSGTEFTLTISSLQPEDFATYFCQQTYSPPITFGQGTRLEIKRAAATTTPAPRPPTPAPTIASQPLSLRPEACRPAAGGAVHTRGLDFACDIYIWAPLAGTCGVLLLSLVITLYCKRGRKKLLYIFKQPFMRPVQTTQEEDGCSCRFPEEEEGGCELRVKFSRSADAPAYQQGQNQLYNELNLGRREEYDVLDKRRGRDPEMGGKPRRKNPQEGLYNELQKDKMAEAYSEIGMKGERRRGKGHDGLYQGLSTATKDTYDALHMQALPPR

molecular target: T1, recombinant human BCMA (ectodomain)-Fc; assay: flow cytometry of transduced T cells; staining with recombinant human BCMA Fc chimera then anti-Fc-Alexa Fluor 647 (method in paragraph 320)
Experimental: To assess the cell surface expression of BCMA CARs, 0.5-1e6 CAR T-cells were resuspended in FACs buffer (Miltenyi Biotec's autoMACS Rinsing Solution+MACS BSA Stock Solution) and incubated with 0.5 ug of recombinant human BCMA Fc Chimera Protein (RNDsystems) for 20 mins at 4° C. Cells were washed twice and re-suspended in FACs buffer and incubated for 20 mins at 4° C. with anti-Fc-Alexa Fluor 647 at 1:200 dilution. Cells were again washed twice and resuspended in FACs buffer and incubated for 20 mins at 4° C. with anti-CD4-Vioblue or anti-CD8-Viogreen (Miltenyi Biotec) at 1:50 dilution and 7AAD at 1:20 dilution. Cells were subsequently washed and analyzed using the MACSQuant® Analyzer 10 flow cytometer (Miltenyi Biotec).

B1: binds.

molecular target: T2, BCMA on BCMA-positive multiple myeloma …; assay: cell-based or functional assay

B2 and B3 cannot be ordered by “tumor lysis of RPMI-8226-luc, luciferase-based killing assay, E:T 5” value (“tumor lysis of RPMI-8226-luc” for short): greater than 40% for the first, greater than 40% for the second.

B4 and B5 cannot be ordered by “tumor lysis of RPMI-8226-luc” value: greater than 40% for the first, greater than 40% for the second.

B6 and B7 cannot be ordered by “tumor lysis of RPMI-8226-luc” value: greater than 40% for the first, greater than 40% for the second.

B8 and B9 cannot be ordered by “tumor lysis of RPMI-8226-luc” value: greater than 40% for the first, greater than 40% for the second.

B10 and B11 cannot be ordered by “tumor lysis of RPMI-8226-luc” value: no more than 40% for the first, greater than 40% for the second.

B12 and B13 cannot be ordered by “tumor lysis of RPMI-8226-luc” value: greater than 40% for the first, greater than 40% for the second.
